Data on 7 molecules can be found in US20200197498A1 (OHIO STATE INNOVATION FOUNDATION, published 2020).

The target of the assay is T1, recombinant hPD-L1 ectodomain (human, UniProt Q9NZQ7 19-238).
T1 construct: extracellular domain; Immobilised on a CM5 chip by amine coupling (2345 RU); also called rhPD-L1; rPD-L1
Description: SPR (Biacore T200), rhPD-L1 immobilised on CM5 chip, 1 µM peptide injected.

T1 sequence (Q9NZQ7 19-238): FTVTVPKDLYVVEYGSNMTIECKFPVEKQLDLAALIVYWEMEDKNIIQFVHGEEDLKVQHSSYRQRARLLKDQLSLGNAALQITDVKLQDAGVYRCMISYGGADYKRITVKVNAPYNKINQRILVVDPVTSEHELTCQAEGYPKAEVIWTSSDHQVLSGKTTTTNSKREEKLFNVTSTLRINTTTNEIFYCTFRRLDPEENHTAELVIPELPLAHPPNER

B1: MVF-HER-2(266-296) (peptide)
peptide: KLLSLIKGVIVHRLEGVEGPSLLHCPALVTYNTDTFESMPNPEGRYTFGASCV
notes: Negative control peptide in SPR
For the molecule B1, the SPR response was found to be 20 RU.

B2: AC-PD-1 (92-110) (peptide)
peptide: Ac-GAISLAPKAQIKESLRAEL-NH2
notes: also called acetylated peptide
As for B2, the binding result is given as “binds”.

B3: PD-1 (73-90) (peptide)
peptide: H-DFHMSVVRARRNDSGTYL-NH2
notes: Free peptide (H2N- at the N-terminus); also called free peptide
Consider B3, for which the binding result is recorded as “binds”.

B4: PD-1 (92-110) (peptide)
peptide: H-GAISLAPKAQIKESLRAEL-NH2
notes: as for B3
In the case of B4, the binding result is on record as “binds”.

B5: PD-1 (45-64) (peptide)
peptide: H-KLAAFPEDRSQPGQDCRFR-NH2
notes: Free peptide (H2N- at the N-terminus); also called free peptide; 46-64
Consider B5, for which the binding result was “binds”.

B6: AC-PD-1 (73-90) (peptide)
peptide: Ac-DFHMSVVRARRNDSGTYL-NH2
notes: as for B2
As for B6, the binding result was “binds”.

B7: AC-PD-1 (45-64) (peptide)
peptide: Ac-KLAAFPEDRSQPGQDCRFR-NH2
notes: as for B2
Take B7: the binding result was “binds”.
